The target in assay [1] is wild-type C3b (human) (UniProt P01024). The assay can be described thus: SPR; Biacore T100, CM5 chip; C3b surface brought to 1500 RU by thioester deposition (FB and FD with Mg2+ to form convertase, then mutant or wt C3 as substrate); sMCP 0.078-5 μM flowed 90 s, 300 s dissociation; 25 °C, 20 μl/min, HBS-EP; steady-state affinity analysis.
In assay [2] the target is C3b_(R592W) (human) (UniProt P01024). The assay is described as above.
Assay [3] concerns the target C3b_(R161W) (human) (UniProt P01024). The assay is described as above.
Assay [4] has as its target C3b_(R592W) (human) (UniProt P01024).
The target in assay [5] is C3b_(R161W) (human) (UniProt P01024).
The target of assay [6] is C3b_(I1157T) (human, UniProt P01024 749-1663; P01024 749-1663, I1157T). The assay can be described thus: SPR; Biacore T100, CM5 chip; C3b surface brought to 1500 RU by thioester deposition (FB and FD with Mg2+ to form convertase, then mutant or wt C3 as substrate); sMCP 0.078-5 μM flowed 90 s, 300 s dissociation; 25 °C, 20 μl/min, HBS-EP; steady-state affinity analysis. To be noted: both partners purified.
C3b_(I1157T) (human, UniProt P01024 749-1663; P01024 749-1663, I1157T), sequence (P01024 749-1663, stated change not applied, chain 1 of 2): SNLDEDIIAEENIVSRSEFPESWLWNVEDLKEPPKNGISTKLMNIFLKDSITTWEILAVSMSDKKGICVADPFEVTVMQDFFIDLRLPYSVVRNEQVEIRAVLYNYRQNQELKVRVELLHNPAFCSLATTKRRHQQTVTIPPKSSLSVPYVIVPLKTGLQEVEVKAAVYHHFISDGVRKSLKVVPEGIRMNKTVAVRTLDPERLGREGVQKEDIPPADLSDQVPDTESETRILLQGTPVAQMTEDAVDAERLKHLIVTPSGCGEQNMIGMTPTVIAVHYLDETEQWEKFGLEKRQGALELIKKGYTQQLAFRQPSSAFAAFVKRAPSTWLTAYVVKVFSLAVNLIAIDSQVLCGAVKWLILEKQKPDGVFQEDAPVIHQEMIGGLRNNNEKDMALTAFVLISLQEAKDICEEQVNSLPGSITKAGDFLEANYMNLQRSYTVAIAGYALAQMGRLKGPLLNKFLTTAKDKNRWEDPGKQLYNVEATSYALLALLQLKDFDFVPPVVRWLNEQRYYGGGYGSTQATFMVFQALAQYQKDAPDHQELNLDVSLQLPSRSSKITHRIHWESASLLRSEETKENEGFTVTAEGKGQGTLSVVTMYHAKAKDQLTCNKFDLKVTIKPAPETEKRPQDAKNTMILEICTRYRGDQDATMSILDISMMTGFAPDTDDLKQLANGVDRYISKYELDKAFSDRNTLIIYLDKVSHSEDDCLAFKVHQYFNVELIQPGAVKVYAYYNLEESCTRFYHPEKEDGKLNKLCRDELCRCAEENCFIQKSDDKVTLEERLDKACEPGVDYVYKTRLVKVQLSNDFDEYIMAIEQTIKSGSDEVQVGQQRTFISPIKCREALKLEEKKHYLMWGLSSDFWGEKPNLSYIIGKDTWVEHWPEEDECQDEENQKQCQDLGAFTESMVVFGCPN
C3b_(I1157T) (human, UniProt P01024 749-1663; P01024 749-1663, I1157T), sequence (P01024 749-1663 I1157T, chain 2 of 2): as the sequence (P01024 749-1663, stated change not applied, chain 1 of 2) above, with I409T counted along it

In assay [7] the target is C3b_(I1157T) (human, UniProt P01024 749-1663; P01024 749-1663, I1157T, C3b state: beta and alpha' chains disulfide-linked. Thioester (Cys1010-Gln1013) opened: hydrolysed in trypsin-generated C3b, or covalently attached to the chip via thioester for MCP SPR. Plasma glycop). The assay can be described thus: SPR; Biacore T100, CM5 chip; C3b immobilised (400 RU, amine coupling); FH 0.07-4.18 μM flowed 180 s, 300 s dissociation; 25 °C, 20 μl/min, HBS-EP; steady-state affinity analysis. The settings on record: both partners purified.
C3b_(I1157T) (human, UniProt P01024 749-1663; P01024 749-1663, I1157T, C3b state: beta and alpha' chains disulfide-linked. Thioester (Cys1010-Gln1013) opened: hydrolysed in trypsin-generated C3b, or covalently attached to the chip via thioester for MCP SPR. Plasma glycop), sequence (P01024 749-1663, stated change not applied, chain 1 of 2): as the sequence (P01024 749-1663, stated change not applied, chain 1 of 2) above
C3b_(I1157T) (human, UniProt P01024 749-1663; P01024 749-1663, I1157T, C3b state: beta and alpha' chains disulfide-linked. Thioester (Cys1010-Gln1013) opened: hydrolysed in trypsin-generated C3b, or covalently attached to the chip via thioester for MCP SPR. Plasma glycop), sequence (P01024 749-1663 I1157T, chain 2 of 2): as the sequence (P01024 749-1663, stated change not applied, chain 1 of 2) above, with I409T counted along it

In assay [8] the target is wild-type C3b (human) (UniProt P01024). The assay is described as above.
The target in assay [9] is C3b_(R592W) (human) (UniProt P01024). The assay is described as above.
Assay [10] has as its target C3b_(R161W) (human) (UniProt P01024). The description is as above.

Here are results for three molecules from publication PMC4503813, “The molecular and structural bases for the association of complement C3 mutations with atypical hemolytic uremic syndrome” (Molecular Immunology, 2015).

As for “soluble recombinant membrane cofactor protein (sMCP) (from UniProt P15529 35-286) (domain or fragment)”, the figures for the Kd with wild-type C3b (human) [1], in the assay with C3b_(R592W) (human) [2] and with C3b_(R161W) (human) [3] were 570 nM, 710 nM and 930 nM, respectively. Besides, the FI-mediated cleavage of C3b with sMCP as cofactor, purified proteins in solution, 0-10 min at 37 °C; percent of C3b cleaved after 10 min (wt almost completely cleaved) in the assay with C3b_(R592W) (human) [4] and with C3b_(R161W) (human) [5] was 70% throughout.

B1: soluble recombinant membrane cofactor protein (sMCP) (domain or fragment)
chain: CEEPPTFEAMELIGKPKPYYEIGERVDYKCKKGYFYIPPLATHTICDRNHTWLPVSDDACYRETCPYIRDPLNGQAVPANGTYEFGYQMHFICNEGYYLIGEEILYCELKGSVAIWSGKPPICEKVLCTPPPKIKNGKHTFSEVEVFEYLDAVTYSCDPAPGPDPFSLIGESTIYCGDNSVWSRAAPECKVVKCRFPVVENGKQISGFGKKFYYKATVMFECDKGFYLDGSDTIVCDSNSTWDPPVPKCLKV
notes: membrane cofactor protein (MCP, CD46), the first four short consensus repeats (SCR1-4); also called CD46; recombinant soluble MCP; source: recombinant; gift from Prof; Susan Lea, Oxford University
In turn, B1 showed a Kd with C3b_(I1157T) [6] of 940 nM.

B2: factor H (natural protein, human, UniProt P08603 19-1231, looked up)
chain: EDCNELPPRRNTEILTGSWSDQTYPEGTQAIYKCRPGYRSLGNVIMVCRKGEWVALNPLRKCQKRPCGHPGDTPFGTFTLTGGNVFEYGVKAVYTCNEGYQLLGEINYRECDTDGWTNDIPICEVVKCLPVTAPENGKIVSSAMEPDREYHFGQAVRFVCNSGYKIEGDEEMHCSDDGFWSKEKPKCVEISCKSPDVINGSPISQKIIYKENERFQYKCNMGYEYSERGDAVCTESGWRPLPSCEEKSCDNPYIPNGDYSPLRIKHRTGDEITYQCRNGFYPATRGNTAKCTSTGWIPAPRCTLKPCDYPDIKHGGLYHENMRRPYFPVAVGKYYSYYCDEHFETPSGSYWDHIHCTQDGWSPAVPCLRKCYFPYLENGYNQNYGRKFVQGKSIDVACHPGYALPKAQTTVTCMENGWSPTPRCIRVKTCSKSSIDIENGFISESQYTYALKEKAKYQCKLGYVTADGETSGSITCGKDGWSAQPTCIKSCDIPVFMNARTKNDFTWFKLNDTLDYECHDGYESNTGSTTGSIVCGYNGWSDLPICYERECELPKIDVHLVPDRKKDQYKVGEVLKFSCKPGFTIVGPNSVQCYHFGLSPDLPICKEQVQSCGPPPELLNGNVKEKTKEEYGHSEVVEYYCNPRFLMKGPNKIQCVDGEWTTLPVCIVEESTCGDIPELEHGWAQLSSPPYYYGDSVEFNCSESFTMIGHRSITCIHGVWTQLPQCVAIDKLKKCKSSNLIILEEHLKNKKEFDHNSNIRYRCRGKEGWIHTVCINGRWDPEVNCSMAQIQLCPPPPQIPNSHNMTTTLNYRDGEKVSVLCQENYLIQEGEEITCKDGRWQSIPLCVEKIPCSQPPQIEHGTINSSRSSQESYAHGTKLSYTCEGGFRISEENETTCYMGKWSSPPQCEGLPCKSPPEISHGVVAHMSDSYQYGEEVTYKCFEGFGIDGPAIAKCLGEKWSHPPSCIKTDCLSLPSFENAIPMGEKKDVYKAGEQVTYTCATYYKMDGASNVTCINSRWTGRPTCRDTSCVNPPTVQNAYIVSRQMSKYPSGERVRYQCRSPYEMFGDEEVMCLNGNWTEPPQCKDSTGKCGPPPPIDNGDITSFPLSVYAPASSVEYQCQNLYQLEGNKRITCRNGQWSEPPKCLHPCVISREIMENYNIALRWTAKQKLYSRTGESVEFVCKRGYRLSSRSHTLRTTCWDGKLEYPTCAKR
notes: complement factor H, human, from plasma; also called FH; CFH
Consider B2, for which the Kd in the assay with C3b_(I1157T) [7] turned out to be 1420 nM; with wild-type C3b (human) [8], 960 nM; in the assay with C3b_(R592W) (human) [9] it was 2450 nM; in the assay with C3b_(R161W) (human) [10], 2390 nM.
